Laboratory results taken from US20260109758A1 (BIOSION, published 2026).
Values belong to the binder of their own block, whether it stands above or below them.

Assays:
[1] = molecular target: T1, recombinant human IL4Rα-his (human, UniProt P24394 26-231, limits assumed, biotin-labeled in the capture ELISA); test: SPR Biacore T200; antibody captured on anti-human IgG CM5 chip, IL4Rα-his as analyte; 1:1 Langmuir fit
T1 construct: In-house made; not shown: His tag at the C-terminus
Protocol: The goat anti-human IgG (GE healthcare, Cat #BR100839, Human Antibody Capture Kit) was covalently linked to a CM5 chip (carboxy methyl dextran coated chip) via primary amines, using a standard amine coupling kit provided by Biacore (GE healthcare, Pittsburgh, PA, USA). Un-reacted moieties on the biosensor surface were blocked with ethanolamine. Then, purified bispecific antibodies of the disclosure at the concentration of 66.67 nM and the controls at 10 μg/mL, were flowed onto the chip at a flow rate of 10 μL/min. Then, serially diluted recombinant human IL4Rα-his (in house made, IL4Rα of SEQ ID NO: 33 with His tag at C-terminus) in HBS EP buffer (provided by Biacore) was flowed onto the chip at a flow rate of 30 μL/min. The association and dissociation curves were fit to a 1:1 Langmuir binding model using BIAcore evaluation software.

[2] = molecular target: T1, recombinant human IL4Rα-his; test: dual-binding ELISA: coated human IL4Rα-his, antibody titrated, detection with biotin human TSLP-his and SA-HRP; signal needs both antigens bound
Protocol: For the dual-binding ELISA, 96-well ELISA plates were firstly coated with 100 μL 1 μg/mL human IL4Rα-his protein (IL4Rα of SEQ ID NO: 33 with His tag at C terminus, prepared in-house) in PBS overnight at 4° C. ELISA plates were washed 4 times with wash buffer (PBS+0.05% Tween-20, PBST) and then blocked with 200 μL/well blocking buffer (5% w/v non-fatty milk in PBST) for 2 hours at 37° C. […] ELISA plates were washed again and incubated with SA-HRP (100 μl/well) for 40 minutes at 37° C. After the final wash, 100 μL/well TMB (Innoreagents) was added. The reaction was stopped 15 minutes later at room temperature with 50 μL/well 1M H₂SO₄, and the absorbance was read on a microplate reader using dual wavelength mode with 450 nm for TMB and 630 nm as the reference wavelength. The OD (450-630) values were plotted against antibody concentration. Data was analyzed using Graphpad Prism and EC₅₀ values were reported.

[3] = molecular target: T2, recombinant human TSLP-his (human, UniProt Q969D9 29-159, biotin-labeled in the ELISAs); test: SPR Biacore; TSLP-his amine-coupled to CM5 chip, antibody as analyte; 1:1 Langmuir fit
T2 construct: In-house made; not shown: His tag at the C-terminus
Protocol: Un-reacted moieties on the biosensor surface were blocked with ethanolamine. Then, serially diluted purified bispecific antibodies and the controls (2-fold serial dilution in HBS-EP⁺ buffer starting at 100 nM) were respectively flowed onto the chip at a flow rate of 30 μL/min. The antigen-antibody association kinetics was followed for 4 minutes and the dissociation kinetics was followed for 13 minutes.

[4] = molecular target: T2, recombinant human TSLP-his; test: capture ELISA: antibody captured on anti-human IgG Fc F(ab')2, biotin human TSLP-his, SA-HRP
Protocol: Briefly, 96-well micro plates were coated with 100 μL 2 μg/mL AffiniPure F(ab′)₂ Fragment Goat Anti-Human IgG, Fey fragment specific (Jackson Immuno Research, Cat #109-006-008) in PBS and incubated overnight at 4° C. Plates were washed 4 times with wash buffer (PBS+0.05% Tween-20, PBST) and then blocked with 200 μL/well blocking buffer (5% w/v non-fatty milk in PBST) for 2 hours at 37° C. […] After the final wash, the plates were incubated with 100 μL/well TMB (Innoreagents). The reaction was stopped 15 minutes later at room temperature with 50 μL/well 1M H₂SO₄, and the absorbance of each well was read on a microplate reader using dual wavelength mode with 450 nm for TMB and 630 nm as the reference wavelength. The OD (450-630) values were plotted against antibody concentration. Data was analyzed using Graphpad Prism and EC₅₀ values were reported.

[5] = molecular target: T3, human IL4Rα expressed on 293F-IL4Rα cell surface (human, UniProt P24394 26-825); test: flow cytometry on 293F-IL4Rα cells, PE anti-human IgG Fc
T3 construct: whole, on cells; also called human IL4Rα-expressing cells; cell surface IL4R
Protocol: Cells were washed twice with FACS buffer, and added with 100 μL/well R-Phycoerythrin AffiniPure Goat Anti-Human IgG, Fey fragment specific (1:1000 dilution in FACS buffer, Jackson Immunoresearch, Cat #109-115-098). Following an incubation of 40 minutes at 4° C. in dark, cells were washed three times and resuspended in FACS buffer. Fluorescence was measured using a Becton Dickinson FACS Canto II-HTS equipment. Data was analyzed using Graphpad Prism and EC₅₀ values were reported.

[6] = molecular target: T1, recombinant human IL4Rα-his; test: capture ELISA: antibody captured on anti-human IgG Fc F(ab')2, biotin human IL4Rα-his, SA-HRP
Protocol: Briefly, 96-well plates were coated with 2 μg/mL AffiniPure F(ab′)₂ Fragment Goat Anti-Human IgG, Fey fragment specific (Jackson Immuno Research, Cat #109-006-008) in PBS, 100 μL/well, overnight at 4° C. Plates were washed once with wash buffer (PBS+0.05% w/v Tween-20, PBST) and then blocked with 200 μL/well blocking buffer (5% w/v non-fatty milk in PBST) for 2 hours at 37° C. […] After a final wash, plates were incubated with 100 μL/well ELISA substrate TMB (Innoreagents, Cat #TMB-S-002). The reaction was stopped in 10 minutes at 25° C. with 50 μL/well 1M H₂SO₄, and the absorbance was read on a microplate reader using dual wavelength mode with 450 nm for TMB and 630 nm as the reference wavelength. Data was analyzed using Graphpad Prism and EC₅₀ values were reported.

Kd [1]: 2.93 nM
koff [1]: 0.000161 s⁻¹
kon [1]: 54900 M⁻¹ s⁻¹
EC50 [2]: 0.0779 nM
Kd [3]: < 0.0145 nM
koff [3]: < 1e-05 s⁻¹
kon [3]: 692000 M⁻¹ s⁻¹
EC50 [4]: 0.106 nM
EC50 [5]: 0.417 nM
EC50 [6]: 0.119 nM
B1: BSI-502-005 (bispecific antibody, human IgG1, kappa)
heavy: QVQLVQSGAEVKKPGASVKVSCKASGYTFTTYWMHWVRQAPGQGLEWMGVIDPSDSDTTYNQKFKGRVTMTRDTSTSTVYMELSSLRSEDTAVYYCTRSLDGYYDYWGQGTLVTVSSASTKGPSVFPLAPSSKSTSGGTAALGCLVKDYFPEPVTVSWNSGALTSGVHTFPAVLQSSGLYSLSSVVTVPSSSLGTQTYICNVNHKPSNTKVDKKVEPKSCDKTHTCPPCPAPEAQGGPSVFLFPPKPKDTLYITREPEVTCVVVDVSHEDPEVKFNWYVDGVEVHNAKTKPREEQYNSTYRVVSVLTVLHQDWLNGKEYKCQVSNKALPAPIEKTISKAKGQPREPQVYTLPPSRDELTKNQVSLTCLVKGFYPSDIAVEWESNGQPENNYKTTPPVLDSDGSFFLYSKLTVDKSRWQQGNVFSCSVMHEALHNHYTQKSLSLSPGKGGGGSGGGGSEVQLVESGGGLVQPGGSLRLSCAASGFTFSTYGMSWVRQAPGKGLVWVATINSNGGSTSYPDSVKGRFTISRDNAKNTLYLQMNSLRAEDTAVYYCARFFRFRNAMDYWGQGTLVTVSSGGGGSGGGGSGGGGSGGGGSDIQMTQSPSSLSASVGDRVTITCRTSENIYSYLAWYQQKPGKAPKFLVYNAKTLAEGVPSRFSGSGSGTDFTLTISSLQPEDFATYYCQHYYGPPTWTFGQGTKVEIK
light: DIQMTQSPSSLSASVGDRVTITCRPTENIYSYLAWYQQKPGKAPKLLIYFARTLAEGVPSRFSGSGSGTDFTLTISSLQPEDFATYYCQHHYGTPWTFGGGTKVEIKRTVAAPSVFIFPPSDEQLKSGTASVVCLLNNFYPREAKVQWKVDNALQSGNSQESVTEQDSKDSTYSLSSTLTLSKADYEKHKVYACEVTHQGLSSPVTKSFNRGEC
notes: hu1C5F12E9-V8 IgG with an anti-IL4R scFv (VH-VL) at the C-terminus of the heavy chain; AQQ and YTE already stand in the entry

Kd [1]: 1.51 nM
koff [1]: 0.000487 s⁻¹
kon [1]: 323000 M⁻¹ s⁻¹
EC50 [2]: 0.136 nM
Kd [3]: < 0.0472 nM
koff [3]: < 1e-05 s⁻¹
kon [3]: 212000 M⁻¹ s⁻¹
B2: BSI-502-002 (bispecific antibody, human IgG1, kappa)
heavy: EVQLVESGGGLVQPGGSLRLSCAASGFTFSTYGMSWVRQAPGKGLVWVATINSNGGSTSYPDSVKGRFTISRDNAKNTLYLQMNSLRAEDTAVYYCARFFRFRNAMDYWGQGTLVTVSSASTKGPSVFPLAPSSKSTSGGTAALGCLVKDYFPEPVTVSWNSGALTSGVHTFPAVLQSSGLYSLSSVVTVPSSSLGTQTYICNVNHKPSNTKVDKKVEPKSCDKTHTCPPCPAPEAQGGPSVFLFPPKPKDTLYITREPEVTCVVVDVSHEDPEVKFNWYVDGVEVHNAKTKPREEQYNSTYRVVSVLTVLHQDWLNGKEYKCQVSNKALPAPIEKTISKAKGQPREPQVYTLPPSRDELTKNQVSLTCLVKGFYPSDIAVEWESNGQPENNYKTTPPVLDSDGSFFLYSKLTVDKSRWQQGNVFSCSVMHEALHNHYTQKSLSLSPGKGGGGSGGGGSDIQMTQSPSSLSASVGDRVTITCRPTENIYSYLAWYQQKPGKAPKLLIYFARTLAEGVPSRFSGSGSGTDFTLTISSLQPEDFATYYCQHHYGTPWTFGGGTKVEIKGGGGSGGGGSGGGGSGGGGSQVQLVQSGAEVKKPGASVKVSCKASGYTFTTYWMHWVRQAPGQGLEWMGVIDPSDSDTTYNQKFKGRVTMTRDTSTSTVYMELSSLRSEDTAVYYCTRSLDGYYDYWGQGTLVTVSS
light: DIQMTQSPSSLSASVGDRVTITCRTSENIYSYLAWYQQKPGKAPKFLVYNAKTLAEGVPSRFSGSGSGTDFTLTISSLQPEDFATYYCQHYYGPPTWTFGQGTKVEIKRTVAAPSVFIFPPSDEQLKSGTASVVCLLNNFYPREAKVQWKVDNALQSGNSQESVTEQDSKDSTYSLSSTLTLSKADYEKHKVYACEVTHQGLSSPVTKSFNRGEC
notes: huC2C1A1A1-V15 IgG with an anti-TSLP scFv (VL-VH) at the C-terminus of the heavy chain; AQQ and YTE already stand in the entry

Kd [1]: 2.22 nM
koff [1]: 0.000399 s⁻¹
kon [1]: 180000 M⁻¹ s⁻¹
EC50 [2]: 0.0944 nM
Kd [3]: 0.0084 nM
koff [3]: 3.87e-06 s⁻¹
kon [3]: 460000 M⁻¹ s⁻¹
EC50 [4]: 0.0844 nM
EC50 [5]: 0.188 nM
EC50 [6]: 0.0272 nM
B3: BSI-502-007 (bispecific antibody, human IgG1, kappa)
heavy: QVQLVQSGAEVKKPGASVKVSCKASGYTFTTYWMHWVRQAPGQGLEWMGVIDPSDSDTTYNQKFKGRVTMTRDTSTSTVYMELSSLRSEDTAVYYCTRSLDGYYDYWGQGTLVTVSSGGGGSGGGGSGGGGSGGGGSDIQMTQSPSSLSASVGDRVTITCRPTENIYSYLAWYQQKPGKAPKLLIYFARTLAEGVPSRFSGSGSGTDFTLTISSLQPEDFATYYCQHHYGTPWTFGGGTKVEIKGGGGSGGGGSEVQLVESGGGLVQPGGSLRLSCAASGFTFSTYGMSWVRQAPGKGLVWVATINSNGGSTSYPDSVKGRFTISRDNAKNTLYLQMNSLRAEDTAVYYCARFFRFRNAMDYWGQGTLVTVSSASTKGPSVFPLAPSSKSTSGGTAALGCLVKDYFPEPVTVSWNSGALTSGVHTFPAVLQSSGLYSLSSVVTVPSSSLGTQTYICNVNHKPSNTKVDKKVEPKSCDKTHTCPPCPAPEAQGGPSVFLFPPKPKDTLYITREPEVTCVVVDVSHEDPEVKFNWYVDGVEVHNAKTKPREEQYNSTYRVVSVLTVLHQDWLNGKEYKCQVSNKALPAPIEKTISKAKGQPREPQVYTLPPSRDELTKNQVSLTCLVKGFYPSDIAVEWESNGQPENNYKTTPPVLDSDGSFFLYSKLTVDKSRWQQGNVFSCSVMHEALHNHYTQKSLSLSPG
light: B2 light
notes: huC2C1A1A1-V15 IgG with an anti-TSLP scFv (VH-VL) at the N-terminus of the heavy chain; AQQ and YTE already stand in the entry
